These results are taken from patent publication EP4772536A1 (Teijin Pharma Limited, dated 2026).

Assay [1] addresses T1, recombinant human soluble gpNMB (human gpNMB-FLAG-His) (human, UniProt Q14956 23-498).
T1 construct: FLAG and His tags; also called recombinant human gpNMB-FLAG-His
T1 sequence: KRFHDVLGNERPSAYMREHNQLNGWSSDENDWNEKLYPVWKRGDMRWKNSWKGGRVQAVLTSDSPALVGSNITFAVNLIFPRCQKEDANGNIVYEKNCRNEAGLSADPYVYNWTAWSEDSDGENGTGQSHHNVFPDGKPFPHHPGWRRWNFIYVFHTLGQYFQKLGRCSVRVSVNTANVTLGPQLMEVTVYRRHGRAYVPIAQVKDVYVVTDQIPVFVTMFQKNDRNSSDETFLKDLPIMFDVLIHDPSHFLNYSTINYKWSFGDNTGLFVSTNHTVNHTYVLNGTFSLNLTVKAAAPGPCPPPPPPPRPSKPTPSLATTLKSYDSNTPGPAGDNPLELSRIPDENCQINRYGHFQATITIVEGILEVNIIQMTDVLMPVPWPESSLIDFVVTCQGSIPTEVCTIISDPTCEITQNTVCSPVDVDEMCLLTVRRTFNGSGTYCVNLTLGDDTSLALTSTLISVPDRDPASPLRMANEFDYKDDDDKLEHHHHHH
Description: SPR single-cycle kinetics, gpNMB-FLAG-His captured, 1:1 model.

Assay [2] has as its target T2, recombinant mouse soluble gpNMB (mouse gpNMB-FLAG-His) (mouse, UniProt Q99P91 23-502).
T2 construct: FLAG and His tags; also called recombinant mouse gpNMB-FLAG-His
T2 sequence: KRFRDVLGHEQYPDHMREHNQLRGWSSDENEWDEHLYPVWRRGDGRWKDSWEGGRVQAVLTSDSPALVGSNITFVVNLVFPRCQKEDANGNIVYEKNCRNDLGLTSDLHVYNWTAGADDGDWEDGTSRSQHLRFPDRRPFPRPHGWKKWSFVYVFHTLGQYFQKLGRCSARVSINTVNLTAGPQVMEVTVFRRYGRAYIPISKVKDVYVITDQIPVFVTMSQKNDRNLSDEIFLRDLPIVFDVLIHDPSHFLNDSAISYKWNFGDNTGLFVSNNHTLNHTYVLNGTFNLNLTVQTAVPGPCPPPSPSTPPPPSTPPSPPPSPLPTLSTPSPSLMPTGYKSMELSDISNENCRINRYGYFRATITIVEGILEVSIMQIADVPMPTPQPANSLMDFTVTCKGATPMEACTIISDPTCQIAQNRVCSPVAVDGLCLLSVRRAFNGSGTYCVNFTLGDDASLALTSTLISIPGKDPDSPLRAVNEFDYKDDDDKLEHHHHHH
The description is as above.

B1: GPN06-1 (antibody, V domains shown)
VH: QVQLQQPGAEIVRPGASVKLSCKASGYTFTDNWMGWVKQRPGQGLEWIGAIDPSDSFTNYNQNFKGKATLTVDTSSSTAYMQLSSLTSEDSAVYFCTRSGYYGSPKLGGDYWGQGTTLTVSS
VL: QIVLTQSPAIMSASLGEEITLTCSASSSISYMHWYQQKSGTSPKLLIYSTSNLASGVPSRFSGSGSGTFYSLTISSVEAEDAADYYCHQWNSYPCTFGGGTKLEIK
notes: anti-gpNMB monoclonal antibody
On to B1, for which, in assay [1], the Kd (in general, the free concentration of one partner at which half of the binding sites on the other are occupied at equilibrium, for simple one-to-one binding) is 0.488 nM; the koff (commonly the rate constant with which the complex falls apart) turned out to be 0.000253 s⁻¹; the kon (usually the rate constant with which the complex forms) was 519000 M⁻¹ s⁻¹. In addition, in assay [2], the Kd amounted to 5.05 nM, the koff is 0.000879 s⁻¹ and the association rate constant (kon) was determined as 174000 M⁻¹ s⁻¹.

B2: GPN05-1 (antibody, V domains shown)
VH: QVQLQQSGAELVRPGTSVKVSCKASGYAFSNHLIEWVKQRPGQGLEWIGVINPGSGGTNYIEKFKGKATLTADKSSSTAYMQLSSLTSDDSAVYFCARGANWDVGFAYWGQGTLVTVSA
VL: EIQMTQSPSSMSASLGDRITITCQATQDIVKNLNWYQQKPGKPPSFLIYYATELAEGVPSRFSGSGSGSDFSLTISNLESEDFADYYCLQFHEFPRTFGGGTKLEIK
notes: as for B1
As to B2, in assay [1], the Kd is 0.366 nM, the koff came to 3.55e-05 s⁻¹ and the kon is 96900 M⁻¹ s⁻¹. Also, in assay [2], the Kd worked out at 8.5 nM, the koff came to 0.000307 s⁻¹ and the kon is 36100 M⁻¹ s⁻¹.
